According to patent US20250049914A1, “STEROID ACID-PEPTIDE BASED INTRACELLULAR CARGO DELIVERY” (DEFENCE THERAPEUTICS INC., priority 2021, published 2025):
Entries after “also recorded” stand apart in the source; their conditions may differ. Where a SMILES comes first, the peptide text is derived from it. The star is where a group is joined. Cholyl = C[C@H](CCC(=O)*)[C@H]1CC[C@H]2[C@@H]3[C@H](O)C[C@@H]4C[C@H](O)CC[C@]4(C)[C@H]3C[C@H](O)[C@]12C

Assays:
EL4 cells = test: Cytochrome C cytosolic delivery, cell death (annexin V binding) by flow cytometry; type: cell-based
Description: Cytochrome C is a protein that is normally entrapped in the mitochondria but its release into the cytosol in known to induce cell death. An experiment was performed in which EL4 cells were incubated with recombinant cytochrome C either alone (FIG. 8A) or mixed with CA-SV40 NLS (47 μM) (FIG. 8B). Successful delivery of cytochrome C to the cytosol in its active form was assessed by measuring cell death (annexin V binding) via flow cytometry.

DC2.4 cells = test: eGFP-Gal3 assessment of damaged endosomes by microscopy; type: cell-based, murine; conditions: 0.1 mg/mL cargo, 3 h, 37° C.
Description: For this assay, 15×10^3 DC2.4 cells were seeded on a sterile cover slide in a 24-well plate. Two days following transfection of DC2.4 cells with the eGFP-hGal3 mammalian expression vector, 0.1 mg/mL of cargo was added to cells then incubated for 3 h at 37° C. The cells were then washed twice to remove excess protein prior to being mounted on a slide. The slides were viewed by fluorescent microscopy (Nikon, Eclipse™ Ti2-U) and the results analyzed using the ImageJ™ software.
A GFP-galectin-3 (GFP-Gal3) based detection system was utilized to explore the effect on endosomal membranes following intracellular delivery of steroid acid-peptide-conjugated cargoes. […] When expressed under normal conditions, Gal3 is evenly distributed across the cytosol but disruption of endosomal membranes allows Gal3 to access and bind luminal glycoproteins. We thus transiently transfected the murine dendritic cell line DC2.4 with a construct expressing Gal3 fused to enhanced green fluorescent protein (eGFP-Gal3). Two days later, DC2.4 cells were incubated with 0.1 mg/mL of either unconjugated OVA cargo or [CA-SV40]-OVA conjugated cargo for 3 h at 37° C. and the cells were observed by fluorescent microscopy.

[1] = Intrinsic tryptophan fluorescence (ITF) after thermal stress; type: physicochemical; conditions: 80° C., ten minutes, 0.8 mg/mL in PBS
Description: An Applied Photophysics (Leatherhead, Surrey, UK) Chirascan™ Q100 circular dichroism (CD) spectrometer was used for intrinsic tryptophan fluorescence (ITF) analysis and a VWR digital heatblock (Radnor, PA) was used for dry block temperature incubations. The Chirascan™ Q100 autosampler rack cooling system was used for all 4° C. incubations. Data was analyzed using MATLAB™ software (Natick, MA). Briefly, samples were removed from storage at −20° C. and allowed to equilibrate to room temperature. Samples were then diluted to 0.8 mg/mL in PBS from stock concentrations in the range of 4 to 5 mg/mL. Diluted samples were then analyzed for ITF without exposure to thermal stress (Native) or after ten minutes of thermal stress by dry block incubation. An aliquot of each diluted sample was incubated at 4° C., a second aliquot was incubated at 37° C., while a third aliquot was incubated at 80° C. BSA, diluted to 0.8 mg/mL, was included with the samples under each of the thermal conditions described above. All samples were re-equilibrated to room temperature after incubation. ITF Analysis was performed in […] by excitation at 280 nm with an emission scan range of 200-600 nm with a bandwidth of 1.0 nm, a Time-per point of 1 s, and a Step of 0.5. The triplicate spectra were blank subtracted, averaged, and converted from units of mdeg to relative fluorescence intensity using MATLAB software. […]

WT MSCs = test: Antigen cross-presentation assay on wild-type MSCs with B3Z cells; type: cell-based, mouse; conditions: WT MSCs pulsed with OVA with or without conjugate
Description: In order to generate Bone marrow (BM)-derived mouse MSCs, the femurs of 6-8-week-old female Balb/c or C57BL/6 mice were isolated and flushed with Alpha Modification of Eagle's Medium (AMEM) supplemented with 10% FBS and 50 U/mL Penicillin-Streptomycin in a 10 cm cell culture dish, then incubated at 37° C. Two days later, non-adherent cells were removed and the media replaced every 3 to 4 days until plastic-adherent cells reached 80% confluency. The generated cells were detached using 0.05% trypsin and expanded until a uniform MSC population was obtained. The generated MSCs were validated for their innate phenotype by flow-cytometry for the expression of CD44, CD45, CD73, and CD90. The cells were frozen in liquid nitrogen until use.
To assess cross-presentation assay, 25×10^3 cells MSCs were seeded per well in 24-well plate then pulsed with steroid acid peptide-conjugated for 6 h admixed with OVA. At the end of the pulsing period, the cells were washed to remove excess antigen then 5×10^4 B3Z cells. The cells were incubated for 17-19 hours prior to their lysis and incubation for another 4-6 hours at 37° C. with a CPRG solution. The optical density signal was detected at wavelength 570 using a SynergyH1™ microplate reader (Biotek, Winooski, VT, United States).
To determine whether a similar effect occurs in wild type (WT) (i.e., non-engineered) MSCs, BM-derived MSCs (Example 1) were used instead in the same cross presentation assay with B3Z responder cells.

[2] = test system: primary bone marrow-derived DCs; test: DQ OVA intracellular degradation/processing, flow cytometry; type: cell-based, mouse; conditions: primary BMDCs, six hours
Description: Mouse bone marrow derived DCs (BMDCs) were generated by flushing the whole marrow from mouse femurs using RPMI™ 1640 supplemented with 10% fetal bovine serum (FBS), 50 U/mL Penicillin-Streptomycin, 2 mM L-glutamine, 10 mM HEPES, 1% MEM Non-essential Amino Acids, 1 mM Sodium Pyruvate, 0.5 mM beta-mercaptoethanol. Following red blood cell lysis, cells were then cultured in media supplemented with 50 ng/mL murine recombinant GM-CSF. The media was changed on days 2, 4, 6 and 8. On day 9, the media was replaced to include recombinant murine GM-CSF and LPS from Escherichia coli 0111 (1 ng/mL) to stimulate DC maturation. Mature DCs were assessed by flow cytometry for their surface expression of CD3, CD19, NK1.1, CD11c, CD80, CD86, and I-A^b. To evaluate OVA degradation/processing, cells were incubated with 10 µg/mL DQ™ OVA (with or without steroid acid-peptide modification) at 37° C. 30 minutes later, cells were washed, and regular media was added. […] Fluorescence was monitored by analyzing the cells by flow cytometry. […] Briefly, while a strong fluorescence quenching effect is observed when the DQ™ OVA substrate remains intact, hydrolysis of DQ™ OVA into single dye-labeled peptides by proteases relieves this quenching, thereby producing brightly fluorescent products. […] Cells were then collected and fluorescence was monitored by flow cytometry.

For `CC(C)[C@H](NC(=O)[C@H](CCCCN)NC(=O)[C@H](CCCNC(=N)N)NC(=O)[C@H](CCCCN)NC(=O)[C@H](CCCCN)NC(=O)[C@H](CCCCN)NC(=O)[C@@H]1CCCN1C(=O)CNC(=O)[C@H](Cc1ccc(O)cc1)NC(=O)CNC(=O)[C@H](CS)NC(=O)CC[C@@H](C)[C@H]1CC[C@H]2[C@@H]3[C@H](O)C[C@@H]4C[C@H](O)CC[C@]4(C)[C@H]3C[C@H](O)[C@]12C)C(=O)NCC(=O)NCC(=O)O` [CA-SV40] (Cholyl-CGYGPKKKRKVGG-OH), the “cell death, conjugate alone” value (EL4 cells; CA-SV40 NLS conjugate alone) was 19%.

For cytochrome C, the “cell death, cytochrome C alone” value (EL4 cells; recombinant cytochrome C alone) was “did not trigger cell death”.

B1: OVA: albumin from chicken egg white, unconjugated cargo/antigen (protein, UniProt P01012 2-386, looked up)
Ovalbumin: GSIGAASMEFCFDVFKELKVHHANENIFYCPIAIMSALAMVYLGAKDSTRTQINKVVRFDKLPGFGDSIEAQCGTSVNVHSSLRDILNQITKPNDVYSFSLASRLYAEERYPILPEYLQCVKELYRGGLEPINFQTAADQARELINSWVESQTNGIIRNVLQPSSVDSQTAMVLVNAIVFKGLWEKAFKDEDTQAMPFRVTEQESKPVQMMYQIGLFRVASMASEKMKILELPFASGTMSMLVLLPDEVSGLEQLESIINFEKLTEWTSSNVMEERKIKVYLPRMKMEEKYNLTSVLMAMGITDVFSSSANLSGISSAESLKISQAVHAAHAEINEAGREVVGSAEAGVDAASVSEEFRADHPFLFCIKHIATNAVLFFGRCVSP
In the case of B1, the “eGFP-Gal3 marker pattern (endosomal membrane disruption)” value (DC2.4 cells) is reported as “remained cytosolic; also recorded: diffuse cytosolic pattern”, the “ITF spectral change after thermal stress (unfolding)” value [1] is reported as “complete denaturation” and the “OVA cross presentation by WT MSCs (B3Z)” value (WT MSCs) is reported as “poorly cross presented”.

B2: [CA-SV40]-OVA: OVA covalently conjugated to CA-SV40 NLS moieties via SM(PEG)4 cross-linker (conjugate, UniProt P01012 2-386, looked up)
Ovalbumin: B1 Ovalbumin
modifications: CA-SV40 NLS peptides via SM(PEG)4
notes: OVA covalently conjugated to CA-SV40 NLS moieties via SM(PEG)4 cross-linker
For B2, the “eGFP-Gal3 marker pattern (endosomal membrane disruption)” value (DC2.4 cells) was “became punctate; also recorded: punctate pattern”.

B3: DQ™ OVA: fluorogenic substrate DQ ovalbumin (protein, UniProt P01012 2-386, looked up)
Ovalbumin: B1 Ovalbumin
modifications: DQ fluorophore label
notes: fluorogenic substrate DQ ovalbumin
For B3, the “DQ OVA fluorescence (intracellular degradation/processing)” value [2] was “not observed”.

B4: 50×-cOVA: OVA conjugated with a 50× molar excess of CA-SV40 NLS, about eight moieties per OVA (conjugate, UniProt P01012 2-386, looked up)
Ovalbumin: B1 Ovalbumin
modifications: about eight CA-SV40 NLS conjugates
notes: OVA conjugated with a 50× molar excess of CA-SV40 NLS, about eight moieties per OVA
In the case of B4, the “ITF spectral change after thermal stress (unfolding)” value [1] is reported as “partial reduction in peak intensity”.

B5: [CA-SV40]-DQ™ OVA: DQ OVA conjugated with a molar excess of CA-SV40 NLS steroid acid-peptide moieties (conjugate, UniProt P01012 2-386, looked up)
Ovalbumin: B1 Ovalbumin
modifications: DQ fluorophore label; CA-SV40 NLS conjugates
notes: DQ OVA conjugated with a molar excess of CA-SV40 NLS steroid acid-peptide moieties
In the case of B5, the “DQ OVA fluorescence (intracellular degradation/processing)” value [2] is reported as “sharp increase”.
